Experimental data taken from the supplement of paper PMC10567573.

B1: RHOBTB1 (parent)
chain: TFGDHHKDRRFAYGRSDVVVLCFS

Variants of: B1
Test: protein stability index of a GFP-peptide fusion (GPS, HEK-293T) (PSI 1-6); higher = more stable
Settings: c terminus: a fixed tail appended
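Further: lentivirally expressed fusions sorted by FACS into six bins by GFP to DsRed ratio, PSI derived from sequencing read proportions per bin multiplied by bin number.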

Variant	protein stability index
TFGDHHKDRRFAYIRSDVVVLCFS [G14I]	2.49
TFGDHHKDRRFAYSRSDVVVLCFS [G14S]	1.75
TFGDHHKDRRFAYPRSDVVVLCFS [G14P]	3.26
TFGDHHKDRRFAYKRSDVVVLCFS [G14K]	2.61
TFGDHHKDRRFAYDRSDVVVLCFS [G14D]	2.49
TFGDHHKDRRFAYRRSDVVVLCFS [G14R]	2.76
TFGDHHKDRRFAYVRSDVVVLCFS [G14V]	3.71
TFGDHHKDRRFAYERSDVVVLCFS [G14E]	1.99
TFGDHHKDRRFAYQRSDVVVLCFS [G14Q]	3.11
TFGDHHKDRRFAYFRSDVVVLCFS [G14F]	3.41
TFGDHHKDRRFAYTRSDVVVLCFS [G14T]	3.19
TFGDHHKDRRFAYHRSDVVVLCFS [G14H]	1.85
TFGDHHKDRRFAYNRSDVVVLCFS [G14N]	2.25
TFGDHHKDRRFAYGRSDTVVLCFS [V18T]	1.54
TFGDHHKDRRFAYGRSDNVVLCFS [V18N]	1.57
TFGDHHKDRRFAYGRSDEVVLCFS [V18E]	2.19
TFGDHHKDRRFAYGRSDHVVLCFS [V18H]	1.88
TFGDHHKDRRFAYGRSDYVVLCFS [V18Y]	2.2
TFGDHHKDRRFAYGRSDQVVLCFS [V18Q]	1.72
TFGDHHKDRRFAYGRSDCVVLCFS [V18C]	2.01
TFGDHHKDRRFAYGRSDLVVLCFS [V18L]	3.53
TFGDHHKDRRFAYGRSDRVVLCFS [V18R]	2.92
TFGDHHKDRRFAYGRSDPVVLCFS [V18P]	1.58
TFGDHHKDRRFAYGRSDDVVLCFS [V18D]	2.03

Variant	protein stability index
TFGDHHKDRRFAYGRSDSVVLCFS [V18S]	1.46
TFGDHHKDRRFAYGRSDWVVLCFS [V18W]	2.21
TFGDHHKDRRFAYGRSDAVVLCFS [V18A]	1.74
TFGDHHKDRRFAYGRSDGVVLCFS [V18G]	1.68
TFGDHHKDRRFAYGRSDIVVLCFS [V18I]	1.42
TFGDHHKDRRFAYGRSDKVVLCFS [V18K]	3.01
TFGDHHKDRRFAYGRSDMVVLCFS [V18M]	2.06
TFGDHHKDRRFAQGRSDVVVLCFS [Y13Q]	2.78
TFGDHHKDRRFAPGRSDVVVLCFS [Y13P]	1.04
TFGDHHKDRRFANGRSDVVVLCFS [Y13N]	2.36
TFGDHHKDRRFARGRSDVVVLCFS [Y13R]	1.33
TFGDHHKDRRFATGRSDVVVLCFS [Y13T]	1.62
TFGDHHKDRRFASGRSDVVVLCFS [Y13S]	2.66
TFGDHHKDRRFAYGRSDVVVLVFS [C22V]	3.33
TFGDHHKDRRFAYGRSDVVVLGFS [C22G]	2.21
TFGDHHKDRRFAYGRSDVVVLWFS [C22W]	2.73
TFGDHHKDRRFAYGRSDVVVLLFS [C22L]	2.42
TFGDHHKDRRFAYGRSDVVVLSFS [C22S]	1.94
TFGDHHKDRRFAYGRSDVVVLDFS [C22D]	2.32
TFGDHHKDRRFAYGRSDVVVLMFS [C22M]	2.88
TFGDHHKDRRFAYGRSDVVVLFFS [C22F]	3.21
TFGDHHKDRRFAYGRSDVVVLPFS [C22P]	2.21
TFGDHHKDRRFAYGRSDVVVLNFS [C22N]	2.23
TFGDHHKDRRFAYGRSDVVVLAFS [C22A]	1.72

Variant	protein stability index
TFGDHHKDRRFAYGRSDVVVLQFS [C22Q]	2.2
TFGDHHKDRRFAYGRSDVVVLEFS [C22E]	2.2
TFGDHHKDRRFAYGRSDVVVLYFS [C22Y]	1.07
TFGDHHKDRRFAYGRSDVVVLTFS [C22T]	1.3
TFGDHHKDRRFAYGRSDVVVLKFS [C22K]	2.17
TFGDHHKDRRFAYGRSFVVVLCFS [D17F]	1.51
TFGDHHKDRRFAYGRSQVVVLCFS [D17Q]	2.43
TFGDHHKDRRFAYGRSIVVVLCFS [D17I]	3.11
TFGDHHKDRRFAYGRSMVVVLCFS [D17M]	3.13
TFGDHHKDRRFAYGRSRVVVLCFS [D17R]	1.79
TFGDHHKDRRFAYGRSKVVVLCFS [D17K]	1.63
TFGDHHKDRRFAYGRSWVVVLCFS [D17W]	2.78
TFGDHHKDRRFAYGRSTVVVLCFS [D17T]	2.67
TFGDHHKDRRFAYGRSCVVVLCFS [D17C]	3.12
TFGDHHKDRRFAYGRSPVVVLCFS [D17P]	3.44
TFGDHHKDRRFAYGRSNVVVLCFS [D17N]	2.23
TFGDHHKDRRFAYGRSDVVVLCNS [F23N]	3.08
TFGDHHKDRRFAYGRSDVVVLCHS [F23H]	2.6
TFGDHHKDRRFAYGRSDVVVLCDS [F23D]	3.1
TFGDHHKDRRFAYGRSDVVVLCTS [F23T]	1.68
TFGDHHKDRRFAYGRSDVVVLCWS [F23W]	1.81
TFGDHHKDRRFAYGRSDVVVLCPS [F23P]	2.16
TFGDHHKDRRFAYGRSDVVVLCGS [F23G]	2.47
TFGDHHKDRRFAYGRSDVVVLCLS [F23L]	1.42

Variant	protein stability index
TFGDHHKDRRFAYGRSDVVVLCRS [F23R]	2.38
TFGDHHKDRRFAYGRSDVVVLCES [F23E]	3.12
TFGDHHKDRRFAYGRSDVVVLCIS [F23I]	1.41
TFGDHHKDRRFAYGRSDVVVLCCS [F23C]	2.41
TFGDHHKDRRFAYGRSDVVVLCMS [F23M]	2.59
TFGDHHKDRRFAYGRSDVVVLCYS [F23Y]	2.22
TFGDHHKDRRFAYGRSDVVVLCKS [F23K]	2.25
TFGDHHKDRRFAYGRSDVVVLCSS [F23S]	1.66
TFGDHHKDRRFAYGISDVVVLCFS [R15I]	2.55
TFGDHHKDRRFAYGDSDVVVLCFS [R15D]	2.36
TFGDHHKDRRFAYGNSDVVVLCFS [R15N]	1.84
TFGDHHKDRRFAYGTSDVVVLCFS [R15T]	2.11
TFGDHHKDRRFAYGKSDVVVLCFS [R15K]	2.27
TFGDHHKDRRFAYGASDVVVLCFS [R15A]	2.04
TFGDHHKDRRFAYGYSDVVVLCFS [R15Y]	3.25
TFGDHHKDRRFAYGPSDVVVLCFS [R15P]	1.48
TFGDHHKDRRFAYGQSDVVVLCFS [R15Q]	2.66
TFGDHHKDRRFAYGLSDVVVLCFS [R15L]	2.23
TFGDHHKDRRFAYGESDVVVLCFS [R15E]	1.75
TFGDHHKDRRFAYGVSDVVVLCFS [R15V]	4.25
TFGDHHKDRRFAYGSSDVVVLCFS [R15S]	2.34
TFGDHHKDRRFAYGRSDVVVLCFR [S24R]	2.95
